Experimental data: EP0830146B1

Legend:
[1] = target: human CD3 on Jurkat cells (human) (UniProt P07766); test: competition with 125I-UCHT1 tracer on Jurkat cells; competitor at 100 nM
[2] = target: human CD3 on Jurkat cells (human) (UniProt P07766); test: competition with 125I-UCHT1 tracer on Jurkat cells; competitor at 1 nM
[3] = target: human CD3 on Jurkat cells (human) (UniProt P07766); test: cell-based or functional assay

Row | % of 125I-UCHT1 bound [1] | % of 125I-UCHT1 bound [2] | Substance | difference in IC50 against UCHT1-CRM9, protein synthesis inhibition [3] | protein synthesis (% of controls), no serum, 1 x 10^-10 M on Jurkat cells (% of controls) [3]
1 | 0% | 80% | UCHT1 (antibody) | – | –
2 | – | – | sFv-DT390 (from UniProt P00588 1-390) | 16 fold | 18
3 | 0% | 80% | scUCHT1 (from UniProt P01871 106-453) | – | –
